Measured values taken from the RNAGym collection of RNA variant scans (doi:10.7554/elife.90254).

B1: OR4K15 (parent)
chain: GUUAACGGUCAUAGGCCAUGGAAACUAGGAGCACCAUUUCGCUGCCAGUGAAGAAAUGAACAAAGAAAAUCUGGGCCAGGCAGGCAUCAAAAGAAAUAGUCUUGCGCUCAACCAGAAAGUCUGUAAUCAUUUUAAGGGUA

Variants of: B1
Test: self-cleavage, relative activity (ratio to wild type); higher = more cleavage; in vitro, sequencing; the parent is a self-cleaving ribozyme

| Variant | self-cleavage |
| --- | --- |
| GUUAACGGUCAUAGGCCAUGGAAACUAGGAGCACCAUUUCGCUGCCAGUGAAGAAAUGAACAAAGAAAAUCUGGGCCAGGCUGGCAUCAAAAGAAAUAGUCUUGCGCUCAACCAGAAAGUCAGUAAUCAUUUUAAGGGUA [A82U U122A] | 0.16 |
| GUUAACGGUCAUAGGCCAUGGAAACUAGGAGCACCAUUUCGCUGCCAGUGAAGGAAUGAACAAAGAAGAUCUGGGCCAGGCAGGCAUCAAAAGAAAUAGUCUUGCGCUCAACCAGAAAGUCUGUAAUCAUUUUAAGGGUA [A54G A68G] | 0.91 |
| GUUAACGGUCAUAGGCCAUGGAAACUAGGAGCACCAUCUCGCUGCCAGUGAAGAAAUGAACAAAGAAAAUCUGGGCCAGGCAGGCAUCAAAAGAAAUAGUCUUGCGCUCAACCAGAAAGUCUGAAAUCAUUUUAAGGGUA [U38C U124A] | 0.81 |
| GCUAACGGUCAUAGGCCAUGGAAACUAGGAGCACCAUUUCGCUGCCAGUGAUGAAAUGAACAAAGAAAAUCUGGGCCAGGCAGGCAUCAAAAGAAAUAGUCUUGCGCUCAACCAGAAAGUCUGUAAUCAUUUUAAGGGUA [U2C A52U] | 0.38 |
| GUUAACGGUCAUAGGCAAUGGAAACUAGGAGCACCAUUUCGCUGCCAGUGAAGAAAUGAACAAAGAAAAUCUGGGCCGGGCAGGCAUCAAAAGAAAUAGUCUUGCGCUCAACCAGAAAGUCUGUAAUCAUUUUAAGGGUA [C17A A78G] | 0.1 |
| GUUAACGGUCAUAGGCCAUGGAAACUAGGAGCACCAUUUCGCUGCCAGUGAAGAAAUGAACAAAGAAAAUCUGGGCCACGCAGGCAUCAAAAGAAAUAGUCUUGCGCUCAACCAGAAAGUCUGUAAUCAUUCUAAGGGUA [G79C U132C] | 0.06 |
| GUUAACGGUCAUAGGCCAUGGAAACUAGGAGCACCAUUUCGCUGCCAGUGAAGAAAUGAACAAAGAAAAUCUGGGCCAGGCAGGCAUCAAAAGGAAUGGUCUUGCGCUCAACCAGAAAGUCUGUAAUCAUUUUAAGGGUA [A94G A98G] | 0.27 |
| GUUAACGGUCAUAGGCCAUGGAAACCAGGAGCACCAUUUCGCUGCCAGUGAAGAAAUGAACAAAGAAAAUCUGGGCCAGGCAGGCAUCAAAAGAAAUAGUCUUGCGCUCAACCAGUAAGUCUGUAAUCAUUUUAAGGGUA [U26C A116U] | 0.18 |
| GUUAACGGUCAUAGGCCAUGGAAACUAGGAGCACCAUUUCGCUGCCAGUGAAGAAAUGAACAAAGAGAAUCUGGGCCAGGCAGGCAUCAAAAGGAAUAGUCUUGCGCUCAACCAGAAAGUCUGUAAUCAUUUUAAGGGUA [A67G A94G] | 1.74 |
| GUUAACGGUCAUAGGCCAUGGUAACUAGGAGCACCAUUUCGCUGCCAGUGAAGAAAUGAACAAAGAAAACCUGGGCCAGGCAGGCAUCAAAAGAAAUAGUCUUGCGCUCAACCAGAAAGUCUGUAAUCAUUUUAAGGGUA [A22U U70C] | 0.9 |
| GUUAACGGCCAUAGGCCAUGGAAACUAGGAGCACCAUUUCGCUGCCAGUGAAGAAAUGAACAAAGAAAAUCUGGGCCAGGCAGGCAUCAAAAGAAAUAGUCUUACGCUCAACCAGAAAGUCUGUAAUCAUUUUAAGGGUA [U9C G104A] | 0.06 |
| GUUAACGGUCAUAGGCCAUGGAAACUAGGAGCACCAUUUCGCUGCCAGUGAAGAAAUGAACAAAGAAAAUCUGGGCCAGGCAGGCAUCAAAAGAAAUAGUCUUGCGCUCAACCAGAAGGUCUGUAAUCAUUUUAAGGGCA [A118G U139C] | 1.43 |
| GUUAACGGUCAUAGGCCAUGGAAACUAGGAGCACCAUUUCGCUGCCAGUGAAGAAAUGAGCAAAGAAAAUCUGGGCCAGGCAGGCAUCAAAAGAAAUAGUCUUGCGCUCAACCAGAAAGUCUGUAAUCAUUUUAACGGUA [A60G G136C] | 0.72 |
| GUUAACGGUCGUAGGCCAUGGAAACUAGGAGCACCAUUUCGCUGCCAGUGAAGAAAUGAACAAAGAAAAUCUGGGCCAGGCAGGCAUCAAAAGAAAUAGUCUUGCGCUCAACCAGAAAGUCUGUAAUCAUUAUAAGGGUA [A11G U132A] | 1.16 |
| GUUAACGGUCAUAGGCCAUGGAAACUAGGAGCACCAUUUCGCUGCCAGUGAAGAAAUGAACAAAGAAAAUCUGGGCCAGGCAGGCAUCAUAAGAAAUAGACUUGCGCUCAACCAGAAAGUCUGUAAUCAUUUUAAGGGUA [A90U U100A] | 0.15 |
| GUUAACGGUGAUAGGCCAUGGAAACUAGGAGCACCAUUUCGCUGCCAGUGAAGAAAUGAGCAAAGAAAAUCUGGGCCAGGCAGGCAUCAAAAGAAAUAGUCUUGCGCUCAACCAGAAAGUCUGUAAUCAUUUUAAGGGUA [C10G A60G] | 0.77 |
| GUUAACGGUCAUAGGCCAUGGAAACUAGGAGCACCAUUUCGCUGCCAGUGAAGAAAUGAACAAAGAAAAUCUGUGCCAGGCAGGCAUCAAAAGAAAUAGUCUUGCGCUCAACCGGAAAGUCUGUAAUCAUUUUAAGGGUA [G74U A114G] | 0.03 |
| GUUAACGGUCAUAGGCCAUGGAAACUAGGAGCACCAUUUCGCUGCCAGUGAAGAAAUGAACAAGGAAAAUCUGGGCCAGGCAGGCAUCAAAAGAAAUAGUUUUGCGCUCAACCAGAAAGUCUGUAAUCAUUUUAAGGGUA [A64G C101U] | 0.42 |
| GUUAACGGUCAUAGGCCAUGGAAACUAGGAGCACCAUUUCGCUGCCAGUGAAGAAAUGAACAAAGAAAAUCUGGGCCGGGCAGGCAUCAAAAGAAAUAGUCUAGCGCUCAACCAGAAAGUCUGUAAUCAUUUUAAGGGUA [A78G U103A] | 0.08 |
| GUUAACGGUCAUAGGCCAUGGGAACUAGGAGCACCAUUUCGCUGCCAGUGAAGAAAUGAACAAAGAAAAUCUGGGCCAGGCAGGCAUUAAAAGAAAUAGUCUUGCGCUCAACCAGAAAGUCUGUAAUCAUUUUAAGGGUA [A22G C88U] | 2.1 |
| GUUAACGGUCAUAGGCCAUGGAAACUAGGAGCACCAUUUCGCUGCCAGUGAAGAAAUGAACAAAGAAAAUCUGGGCCAGGCAGGCAUCAAAAGAAAUAGUCGUGCGCUCAACCAGAAAGUCUGUAAUCAAUUUAAGGGUA [U102G U130A] | 0.29 |

| Variant | self-cleavage |
| --- | --- |
| GUUAACGGUCAUAGGCCAUGGAAACUAGGAGCACCAUUUCGCUGCCAGUGAAGAAAUGAACAAAGAAAAUCUGGGCCAGGCAGGCAUCUAAAGAAAUAGUCUUGCGCUCAACCAGAAAGCCUGUAAUCAUUUUAAGGGUA [A89U U120C] | 0.5 |
| GUUAACGGUCAUAGGCCAUGGAAACUAGGAGCACCAUUUCGCUGCCAGCGAAGAAAUGAACAAAGAAAAUCUGGGCCGGGCAGGCAUCAAAAGAAAUAGUCUUGCGCUCAACCAGAAAGUCUGUAAUCAUUUUAAGGGUA [U49C A78G] | 0.2 |
| GUUAACGGUCAUAGGCCAUGGAAACUAGGAGCACCAUUUCGCUGCCAGUGAAGAAAUGAACAGUGAAAAUCUGGGCCAGGCAGGCAUCAAAAGAAAUAGUCUUGCGCUCAACCAGAAAGUCUGUAAUCAUUUUAAGGGUA [A63G A64U] | 1.62 |
| GUUAACGGUCAUAGGCCAUGGAAACUAGGAGCACCAUUUCGCUGCCAGUGAAGAAAUGAACAAAGAAAAUCUGGGCCAGGCAGGCAUCAACAGAAAUAGUCUUGCGCUCAACCAGAAAGUCUGUAAUCAUAUUAAGGGUA [A91C U131A] | 2.16 |
| GUUAACGGUCAUAGGCCAUGGAAACUAGGAGCUCCAUUUCGCUGCCAGUGAAGAAAUGAACAAAGAAAAUCUGGGCCAGGCAGGCAUCAAAAGAAAUAGUCUUGCGCUCAACCAGAGAGUCUGUAAUCAUUUUAAGGGUA [A33U A117G] | 1.9 |
| GUUAACGGUCAUAGGCCAUGGAAACUAGGAGCACCAUUUCGCUGCCAGCGAAGAAAUGAACAAAGAAAAUCUGGGCCAGGCAGGCAUCAAAAGAAUUAGUCUUGCGCUCAACCAGAAAGUCUGUAAUCAUUUUAAGGGUA [U49C A96U] | 1.92 |
| GUUAACGGUCAUAGGCCAUGGAGACUAAGAGCACCAUUUCGCUGCCAGUGAAGAAAUGAACAAAGAAAAUCUGGGCCAGGCAGGCAUCAAAAGAAAUAGUCUUGCGCUCAACCAGAAAGUCUGUAAUCAUUUUAAGGGUA [A23G G28A] | 0.93 |
| GUUAACGGUCAUAGGCCAUGGAAACUAGGAGCACCAUUUCGCUGCCAGUGAAGAAAUGAACAAAGAAAAUCUGGGCCAGGCAGGCAUCAAAAGAAAUAGUCUUGCGCUCAACCAGAAAGUAUGUAGUCAUUUUAAGGGUA [C121A A126G] | 1.78 |
| GUAAUCGGUCAUAGGCCAUGGAAACUAGGAGCACCAUUUCGCUGCCAGUGAAGAAAUGAACAAAGAAAAUCUGGGCCAGGCAGGCAUCAAAAGAAAUAGUCUUGCGCUCAACCAGAAAGUCUGUAAUCAUUUUAAGGGUA [U3A A5U] | 0.64 |
| GUUAACGGUCAUAGGCCAUGGAAACCAGGAGCACCAUUUCGCUGCCAGUGAAGAAAUGAACGAAGAAAAUCUGGGCCAGGCAGGCAUCAAAAGAAAUAGUCUUGCGCUCAACCAGAAAGUCUGUAAUCAUUUUAAGGGUA [U26C A62G] | 1.47 |
| GUUAACGGUCAUAGGCCAUGGAAACUAGGAGCACCAUUUCGCUGCCAGUGAAGAAAUGAACAAAGACAAUCUGGGCCAGGCAGGCAUCAAAAGAAAUAGUCUUGCGCUCAACCAGAAAGUCUGUAGUCAUUUUAAGGGUA [A67C A126G] | 2.11 |
| GUUAACGGUCAUAGGCCAUGGUAACUAGGAGCACCAUUUCGCUGCCAGCGAAGAAAUGAACAAAGAAAAUCUGGGCCAGGCAGGCAUCAAAAGAAAUAGUCUUGCGCUCAACCAGAAAGUCUGUAAUCAUUUUAAGGGUA [A22U U49C] | 0.77 |
| GUUAACGGUCAUAGGCCAUGGAAACUAGGAGCACCAUUUCGCUGCCAGUGAAGAAAUGAACAAAGAAAAUCUGGGCCAGGCAGGCAUCAAAAGAAAUAGACUUGCGCUCAACUAGAAAGUCUGUAAUCAUUUUAAGGGUA [U100A C113U] | 0.11 |
| GUUAACGGUCAUAGGCCAUGGAAACUAGGAGCACCAUUUCGCUGCCAGUGAAGAUAUGAACAAAGAAAAUCUGGGCCAGGCAGGCAUCAAAAGGAAUAGUCUUGCGCUCAACCAGAAAGUCUGUAAUCAUUUUAAGGGUA [A55U A94G] | 1.59 |
| GUUAACGGUCAUGGGCCAUGGAAACUAGGAGCACCAUUUCGCUGCCAGUGAAGAGAUGAACAAAGAAAAUCUGGGCCAGGCAGGCAUCAAAAGAAAUAGUCUUGCGCUCAACCAGAAAGUCUGUAAUCAUUUUAAGGGUA [A13G A55G] | 0.97 |
| GUUAACGGUCAUAGGCCAUGGAAACUAAGAGCACCAUUUCGCUGCCAGUGAAGAAAUGAACAAAGAAAAUCUGGGCCAGGCAGGCAUCAAAAGAAAUAGUCUUGCGCACAACCAGAAAGUCUGUAAUCAUUUUAAGGGUA [G28A U108A] | 0.01 |
| GUUAACGGUCAUAGGCCAUGGAAACUAGGAGCACCAUUUCGCUGCCAGUGAAGAAAUGAACAAAGAAAUUCUGGGCCAGGCAGGCAUCAAAAGUAAUAGUCUUGCGCUCAACCAGAAAGUCUGUAAUCAUUUUAAGGGUA [A69U A94U] | 2.23 |
| GUUAACGGUCAUAGGCCAUGGGAACUAGGAGCACCAUUUCGCUGCCAGUGAAGAAAUGAACAAAGAAAAUCUGGGCCAGGCAGGCAUCAAAAGAAAUAGUCUUGCACUCAACCAGAAAGUCUGUAAUCAUUUUAAGGGUA [A22G G106A] | 0.03 |
| GUUAACGGUCAUAGGCCAUGGAAACUAGGAGCACCAUUUCGCUGCCAGUGAAGAAAUGAACAAAGAAAAUCUGGGCCAGGCAGGCGUCAAAAGAAAUAGUCUUGCGCUCAACCAGAAAGUCUGUAAUCCUUUUAAGGGUA [A86G A129C] | 1.29 |
| GUUAACGGUCAUAGGCCAUGGAAACUAGGAGCACCAUUUCGCUGCCAGUGAAGAAAUGAACAAAGAAAAUCUGGGCCAGGCAGGCAUCAAAAGACAUAGUCUUGCGCUCGACCAGAAAGUCUGUAAUCAUUUUAAGGGUA [A95C A110G] | 0.16 |
